These results are taken from article PMC3905715 (Nature Communications, 2013).

The chains are these.
B1: mouse ZNRF3 ectodomain (K53-L205), biotinylated, immobilised for SPR, Q5SSZ7 E92N; E94T (protein)
chain: KETAFVEVVLFESSPSGDYTTHTTGLTGRFSRAGAMLSANGTIVQMHPLGLCNNNDEEDLYEYGWVGVVKLEQPELDPKPCLTVLGKAKRAVQRGATAVIFDVSENPEAIDQLNQGSEDPLKRPVVYVKGADAIKLMNIVNKQKVARARIQHL
B2: mouse ZNRF3 ectodomain (K53-L205), biotinylated, immobilised for SPR, Q5SSZ7 S90C (protein)
chain: B1 chain with S38C, N40E, T42E
B3: mZNRF3ecto S90C (spontaneously disulphide cross-linked dimer) (domain or fragment, mouse, UniProt Q5SSZ7 53-205, looked up)
chain: B1 chain with S38C, N40E, T42E
notes: ZNRF3 ectodomain, mouse; limits K53-L205 as stated for mZNRF3ecto; probably as m1; also called S90C variant of mZNRF3_(ecto); predimerized mZNRF3_(ecto) S90C
B4: mouse ZNRF3 ectodomain (mZNRF3ecto, K53-L205) (domain or fragment, UniProt Q5SSZ7 53-205, looked up)
chain: B1 chain with N40E, T42E
notes: ZNRF3 ectodomain, mouse, residues K53-L205; pHLsec vector; used for crystals, ultracentrifugation and as SPR analyte; also called wt mZNRF3_(ecto); source: HEK293T, secreted, purified (HisTrap, gel filtration)
B5: mouse Rspo4 Fu1–Fu2 (T29-Q136) (domain or fragment, UniProt Q8BJ73 29-136, looked up)
chain: TGLGGNCTGCVICSEENGCSTCQQRLFLFIRREGIRQYGKCVHDCPLGFFGIRGQEANRCKKCGATCESCFSQDFCIRCKRRFHLYKGKCLPSCPPGTLTHQSTRECQ
modifications: biotin at the C-terminal BirA recognition sequence (as immobilised ligand in Figure 4b)
notes: R-spondin 4, mouse, Fu1-Fu2, residues T29-Q136; also called mRspo4; mRspo4Fu1–Fu2
B6: human RNF43 ectodomain (hRNF43ecto, Q44-L188), biotinylated, immobilised for SPR, Q68DV7 K108N (protein)
chain: QKAIIRVIPLKMDPTGKLNLTLEGVFAGVAEITPAEGKLMQSHPLYLCNASDDDNLEPGFISIVNLESPRRAPRPCLSLASKARMAGERGASAVLFDITEDRAAAEQLQQPLGLTWPVVLIWGNDAEKLMEFVYKNQKAHVRIEL
B7: human RNF43 ectodomain (hRNF43ecto, Q44-L188), biotinylated, immobilised for SPR, Q68DV7 L82S (protein)
chain: B6 chain with L39S, N65K
B8: mR42 (protein)
chain: TGLGGNCTGCVICSEENGCSTCQQRLFLFIRREGIRQYGKCVHDCPLGFFGIRGQEANRCKKCRIENCDSCFSKDFCTKCKVGFYLHRGRCFDECPDGFAPLDETMECVEG
modifications: Chimera read from its name as Rspo4 Fu1 + Rspo2 Fu2. Junction not printed: set by convention after the residue aligned with Rspo2 R95. Disulphides
B9: human Rspo1 Fu1–Fu2 (I32-S143), immobilised for SPR (domain or fragment, UniProt Q2MKA7 32-143, looked up)
chain: ISAEGSQACAKGCELCSEVNGCLKCSPKLFILLERNDIRQVGVCLPSCPPGYFDARNPDMNKCIKCKIEHCEACFSHNFCTKCKEGLYLHKGRCYPACPEGSSAANGTMECS
modifications: biotin at the C-terminal BirA recognition sequence
notes: R-spondin 1, human, Fu1-Fu2, residues I32-S143; also called hRspo1
B10: mouse Rspo2 Fu1–Fu2 (mRspo2Fu1–Fu2, N37 or I39-G144), His10 (domain or fragment)
chain: NPICKGCLSCSKDNGCSRCQQKLFFFLRREGMRQYGECLHSCPSGYYGHRAPDMNRCARCRIENCDSCFSKDFCTKCKVGFYLHRGRCFDECPDGFAPLDETMECVEG
B11: mouse Rspo2 Fu1–Fu2 (mRspo2Fu1–Fu2, N37 or I39-G144), His10 (domain or fragment)
chain: B10 chain
modifications: biotin at C-terminal BirA tag, immobilised; disulphide
B12: human Rspo3 Fu1–Fu2 (R32-H147), immobilised for SPR (domain or fragment, UniProt Q9BXY4 32-147, looked up)
chain: RMHPNVSQGCQGGCATCSDYNGCLSCKPRLFFALERIGMKQIGVCLSSCPSGYYGTRYPDINKCTKCKADCDTCFNKNFCTKCKSGFYLHLGKCLDNCPEGLEANNHTMECVSIVH
modifications: biotin at the C-terminal BirA recognition sequence
notes: R-spondin 3, human, Fu1-Fu2, residues R32-H147; also called hRspo3

The target of data set [1] is Rspo Fu1–Fu2 chimera: Fu1 of Rspo4 with Fu2 of a 'strong' Rspo (mouse | not stated). The data set is described as follows: SPR; binding of Rspo Fu1–Fu2 chimeras to ZNRF3ecto. (In general: In SPR one partner is held on a chip, and binding of the other changes the refractive index at the surface.)
In data set [2] the target is T1, preformed hLGR5ecto,lr × mRspo2 Fu1–Fu2 complex, O75473.
T1 chain 1: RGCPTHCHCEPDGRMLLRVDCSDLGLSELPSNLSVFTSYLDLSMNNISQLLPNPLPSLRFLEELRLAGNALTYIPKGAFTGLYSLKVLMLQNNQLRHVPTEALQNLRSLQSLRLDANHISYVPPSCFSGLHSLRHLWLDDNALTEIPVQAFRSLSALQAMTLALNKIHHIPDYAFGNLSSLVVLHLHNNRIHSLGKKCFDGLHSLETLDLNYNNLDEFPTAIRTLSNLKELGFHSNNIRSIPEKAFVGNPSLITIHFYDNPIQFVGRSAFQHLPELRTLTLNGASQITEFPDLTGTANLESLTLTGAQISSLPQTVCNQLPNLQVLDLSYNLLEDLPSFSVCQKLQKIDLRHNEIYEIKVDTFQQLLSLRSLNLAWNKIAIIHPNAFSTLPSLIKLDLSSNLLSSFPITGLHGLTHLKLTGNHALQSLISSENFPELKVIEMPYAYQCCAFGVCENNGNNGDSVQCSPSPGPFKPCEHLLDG
T1 chain 2: B10 chain
The data set is described as follows: SPR. The settings on record: chain shown with the change.

Data set [3] concerns the molecule itself. The experiment in a line: crystal structure; X-ray, sitting drop vapour diffusion; apo proteins and complexes in several crystal forms.
Data set [4] deals with T2, hRSPO3 (Homo sapiens (Human), UniProt Q9BXY4).
T2 chain: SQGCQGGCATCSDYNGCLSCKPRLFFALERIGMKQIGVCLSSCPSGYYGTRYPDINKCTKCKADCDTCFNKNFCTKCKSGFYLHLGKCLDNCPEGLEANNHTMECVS
The data set is described as follows: SPR equilibrium, RSPO Fu1-Fu2 immobilised.

Data set [5] concerns the target T3, hRSPO1 (Homo sapiens (Human), UniProt Q2MKA7).
T3 chain: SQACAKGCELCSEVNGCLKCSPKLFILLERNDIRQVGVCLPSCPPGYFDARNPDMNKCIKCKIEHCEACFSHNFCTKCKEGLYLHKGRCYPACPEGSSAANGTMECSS
The data set is described as follows: SPR equilibrium, RSPO Fu1-Fu2 immobilised.

Data set [6] has as its target T4, human LGR5 ectodomain (hLGR5ecto, R32-G557), immobilised for SPR (human, UniProt O75473 32-557).
T4 construct: LGR5 ectodomain, human, residues R32-G557; the methods describe biotinylated variants on streptavidin
T4 sequence (looked up): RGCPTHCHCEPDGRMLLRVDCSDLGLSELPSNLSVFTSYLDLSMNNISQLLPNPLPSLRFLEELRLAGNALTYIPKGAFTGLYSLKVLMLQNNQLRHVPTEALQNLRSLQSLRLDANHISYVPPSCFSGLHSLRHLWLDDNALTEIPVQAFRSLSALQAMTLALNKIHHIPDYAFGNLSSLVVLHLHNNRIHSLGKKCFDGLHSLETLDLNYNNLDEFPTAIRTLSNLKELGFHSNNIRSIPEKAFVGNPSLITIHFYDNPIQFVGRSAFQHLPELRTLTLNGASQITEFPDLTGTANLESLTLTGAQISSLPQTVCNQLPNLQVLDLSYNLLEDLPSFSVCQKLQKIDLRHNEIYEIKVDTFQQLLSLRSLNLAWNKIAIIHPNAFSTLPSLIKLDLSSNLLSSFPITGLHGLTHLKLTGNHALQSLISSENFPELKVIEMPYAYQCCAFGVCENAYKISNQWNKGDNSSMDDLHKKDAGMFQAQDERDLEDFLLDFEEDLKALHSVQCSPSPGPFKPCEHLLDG
The experiment in a line: SPR; hLGR5ecto (R32-G557) immobilised; injections of 10 μM solutions step by step, and saturation with the preformed mZNRF3ecto × mRSPO2 complex (single dilution series). The settings on record: both partners purified.

Data set [7] deals with T5, human LGR5 ectodomain (hLGR5ecto, R32-G557), immobilised for SPR (human, UniProt O75473 32-557).
T5 chain: T4 sequence (looked up)
The data set is described as follows: SPR.

In data set [8] the target is T4, human LGR5 ectodomain (hLGR5ecto, …). The data set is described as follows: SPR; binding of Rspo Fu1–Fu2 proteins and chimeras to hLGR5ecto; single dilution series. To be noted: both partners purified.
The target in data set [9] is B4. The experiment in a line: SPR; mZNRF3ecto as analyte, biotinylated Rspo variants immobilised on streptavidin; equilibrium, 25 °C, 10 mM HEPES/NaOH pH 7.5, 150 mM NaCl, 0.005% Tween20; Biacore T200. The settings on record: both partners purified.
Data set [10] concerns the target T6, mouse Rspo2 Fu1–Fu2 (mRspo2Fu1–Fu2, N37 or I39-G144), His10.
T6 chain: B10 chain
The data set is described as follows: SPR. The settings on record: chain shown with the change.

In data set [11] the target is T7, mZNRF3ecto M98T (Mus musculus).
T7 chain: B1 chain with N40E, T42E, M46T
The experiment in a line: SPR.

Substitutions are numbered along the chain they refer to. Names and notes keep the numbering of the source.

On to “mouse ZNRF3 ectodomain (mZNRF3ecto, K53-L205) (from UniProt Q5SSZ7 53-205) (domain or fragment)”, for which, in data set [1], the Kd stood at 3600 nM.

B1: the Kd in data set [2] was found to be 3500 nM.

B2: the Kd in data set [2] came out at 206 nM.

In the case of B3, the binding result in data set [3] is on record as “binds”.

As to B4, the Kd in data set [4] was 60 nM; in data set [5], 6800 nM. The binding result in data set [6] is recorded as “binds”.

With B5, the equilibrium dissociation constant (Kd) in data set [7] was determined as 73 nM; in data set [9], 300000 nM. Moreover, in data set [8], the binding result is given as “binds”.

B6 displayed a Kd in data set [10] of 62 nM.

In [10], B7 showed a dissociation constant Kd of 78 nM.

Consider B8, for which, in data set [7], the equilibrium dissociation constant (Kd) amounted to 240 nM.

For the molecule B9, the binding result in data set [9] is “binds”.

Molecule B10 returned a dissociation constant (Kd) in data set [7] of 14 nM.

Turning to B11, the Kd in data set [11] was 1500 nM.

Take B12: in data set [9], the binding result is “binds”.

For orientation: Kd means the constant that tells how readily two partners part at equilibrium. Higher therefore signals lower affinity.
